Reference: patent US10570379B2, “Polypeptides for carbon-carbon bond formation and uses thereof” (INVISTA North America S.à.r.l., priority 2015, dated 2020)

Columns and labels:
[1] = Screen for dual transferase/ketothiolase activity with acetyl-CoA and sodium acrylate, LC-MS detection; assay type: biochemical; settings: for ketothiol-product: 3-oxopent-4-enoyl-CoA via thiolase activity; for thiol-product: propenoyl-CoA via transferase activity
Method: (§1) Acetyl-CoA was used at a final concentration of 1.5 mM and 30 mM of the substrate being studied (e.g. carboxylic acid salts, such as sodium acrylate) or 1.5 mM of propionyl-CoA in 50 mM Hepes buffer (pH 7.5). The reaction was started by addition of 0.5 mg/mL of YdiF pure protein or mutants to a final volume of 250 μL and incubated for 1 to 10 hours at 30° C.
Two controls were made from similar mixture except that the enzymes were inactivated by heating-up at 95° C. for 20 min or they were replaced by Buffer C.
(§2) All samples were prepared in triplicate and spun down at 15000 g for 20 min at 4° C. Detection of the thiol product (e.g. acryloyl-CoA) synthesized from CoA-transferase activity and the keto-thiol product (e.g. 3-oxopent-4-enoyl-CoA) due to putative thiolase activity of YdiF (or homologues) was carried out by Liquid Chromatography coupled to a qTof-Mass spectrometry (in positive mode), using a C18 column (Zorbax Eclipse C18, 2.1×50 mm, 1.8μ, Agilent, code product: 959757-902) and a gradient of 10 mM ammonium acetate and acetonitrile as mobile phase.
YdiF from Clostridium propionicum belongs to the enzymatic class EC2.8.3.8. Other members of this enzyme class with similar structural features to YdiF, as well as proteins with a CoA-transferase activity from close-by enzymatic classes, were screened for dual transferase/ketothiolase activity as described in Example 2. Acetyl-CoA and sodium acrylate were provided as substrates. LC-MS was used to detect the thiol-product (propenoyl-CoA) synthesized via the transferase activity and the ketothiol-product (3-oxopent-4-enoyl-CoA) synthesized via the thiolase activity, as described in Example 2.

[2] = Solubility of the expressed protein (Table 3); settings: protein expressed in E. coli
Method: From a fresh LB plate containing the desired clone transformant, one colony (or small scratch) was picked to inoculate 25 mL of LB supplemented with the relevant antibiotic and the pre-culture was incubated overnight at 37° C., 230 rpm. The following morning, the TB auto-induced medium (Merck/Code product: 71491-5) was prepared by mixing 60 g TB/L supplemented with 10 mL Glycerol/L of TB and microwaved during 3+2 minutes at full power. The TB was cooled down before use and splitting it in sterile flasks. Then, the pre-culture incubated overnight in LB was centrifuged and the supernatant discarded. The obtained pellet was resuspended with 5 mL of freshly prepared TB medium and used to inoculate 500 mL of TB dispensed in sterile flasks and supplemented with the appropriate antibiotic. The inoculated medium was incubated at 28° C. for at least 20 h, 230 rpm.
The culture was centrifuged at least at 3000 g/20 min/4° C. and the pellet used immediately or stored at −80′C.
The pellets (fresh or thawed) were resuspended in 10 to 20 mL of Buffer A (50 mM Hepes+150 mM NaCl+40 mM Imidazole+5% Glycerol−pH 7.5). The resuspended cells were then sonicated in ice for, 5 min at 37% Amplitude with 5″ ON and 15″ OFF sonication pulse. The sonicated cells were centrifuged for at least 20 min at 15500 g and 4° C. The supernatant containing the soluble fraction of proteins was recovered, filtered using 0.45 or 0.2 um filters, and used for His-trap protein purification.

[3] = Substrate specificity, propionate with acetyl-CoA, LC-MS; assay type: biochemical
Method: as §1, §2
(§3) To study the substrate specificity of YdiF, several commercially available substrates were provided to YdiF (and homologues) in combination with acetyl-CoA, as described in Example 2. LC-MS was used to detect the thiol-product synthesized via the transferase activity and the ketothiol-product synthesized via the thiolase activity.

[4] = Substrate specificity, butyrate with acetyl-CoA, LC-MS; assay type: biochemical
Method: as §1, §2, §3

[5] = Substrate specificity, 3-butenoate with acetyl-CoA, LC-MS; assay type: biochemical; settings: substrate 3-butenoate + acetyl-CoA
Method: as §1, §2, §3

[6] = Substrate specificity, 4-pentenoate with acetyl-CoA, LC-MS; assay type: biochemical; settings: substrate 4-pentenoate + acetyl-CoA
Method: as §1, §2, §3

[7] = Substrate specificity, 6-heptenoate with acetyl-CoA, LC-MS; assay type: biochemical; settings: substrate 6-heptenoate + acetyl-CoA
Method: as §1, §2, §3

[8] = Substrate specificity, 2-hexenoate with acetyl-CoA, LC-MS; assay type: biochemical; settings: substrate 2-hexenoate + acetyl-CoA
Method: as §1, §2, §3

[9] = Substrate specificity, 4-Hydroxybutyrate with acetyl-CoA, LC-MS; assay type: biochemical; settings: substrate 4-Hydroxybutyrate + acetyl-CoA
Method: as §1, §2, §3
4-Hydroxybutyrate was used as a substrate with acetyl-CoA for protein 244 and the corresponding products from the transferase and ketothiolase activities of protein 244 were detected.

B1: Bdigene 0345: Succinyl-CoA--D-citramalate CoA-transferase from Chloroflexus aurantiacus, Uniprot A9WGE3 (protein, UniProt A9WGE3 1-402, looked up)
Succinyl-CoA--D-citramalate …: MSSQRPPRPLDDVRVLELGAFLAGPFCGQLLADFGAEVIKVEPPGKGDPMREWGRHRYKGRTLWWPVLARNKKSITIDLRTPEGQALVKRLVPHVDMVLENFRPGTLEEWGLGWEELHALNPGLIMIRVSGFGQTGPYRDKAGFGSIGEAMGGIRAITGFPDRPPTRIGISIGDSLAATFAALGALVALHQRQRSGQGQVVDIGIYEGVLALMESMIPEYQLTGHIRERTGNILPNVAPSNIYPTADGSWFVIGANADTIFTRLAQAMGQPELATDPRFATHQARGEHQAELDDLIAAWTLNYTADQLQVMMDEYGVPAGRIYTAKEMLSDPHFIARQSIIGVHDPDLGEIKMQNVVPRLSATPGGVDWTGPALGQHNREIFTDLLGLTEDDLAMLQAKRVI
✓: ketothiol-product [1] | thiol-product [1] | Solubility [2]

B2: Bdigene 0344: Succinyl-CoA: acetate CoA-transferase from Acetobacter aceti, Uniprot B3EY95 (protein, UniProt B3EY95 1-505, looked up)
Succinyl-CoA:acetate …: MTERIRNVALRSKVCPAETASELIKHGDVVGTSGFTGAGYPKEVPKALAQRMEAAHDRGEKYQISLITGASTGPQLDGELAKANGVYFRSPFNTDATMRNRINAGETEYFDNHLGQVAGRAVQGNYGKFNIALVEATAITEDGGIVPTSSVGNSQTFLNLAEKVIIEVNEWQNPMLEGIHDIWDGNVSGVPTRDIVPIVRADQRVGGPVLRVNPDKIAAIVRTNDRDRNAPFAAPDETAKAIAGYLLDFFGHEVKQNRLPPSLLPLQSGVGNVANAVLEGLKEGPFENLVGYSEVIQDGMLAMLDSGRMRIASASSFSLSPEAAEEINNRMDFFRSKIILRQQDVSNSPGIIRRLGCIAMNGMIEADIYGNVNSTRVMGSKMMNGIGGSGDFARSSYLSIFLSPSTAKGGKISAIVPMAAHVDHIMQDAQIFVTEQGLADLRGLSPVQRAREIISKCAHPDYRPMLQDYFDRALKNSFGKHTPHLLTEALSWHQRFIDTGTMLPS
✓: ketothiol-product [1] | thiol-product [1] | Solubility [2]

B3: Bdigene 237: Acetate/Propionate CoA-transferase (YdiF) from Clostridium propionicum, Uniprot Q9L3F7, SEQ ID NO: 1 (protein, listed as Clostridium propionicum)
chain: MRKVPIITADEAAKLIKDGDTVTTSGFVGNAIPEALDRAVEKRFLETGEPKNITYVYCGSQGNRDGRGAEHFAHEGLLKRYIAGHWATVPALGKMAMENKMEAYNVSQGALCHLFRDIASHKPGVFTKVGIGTFIDPRNGGGKVNDITKEDIVELVEIKGQEYLFYPAFPIHVALIRGTYADESGNITFEKEVAPLEGTSVCQAVKNSGGIVVVQVERVVKAGTLDPRHVKVPGIYVDYVVVADPEDHQQSLDCEYDPALSGEHRRPEVVGEPLPLSAKKVIGRRGAIELEKDVAVNLGVGAPEYVASVADEEGIVDFMTLTAESGAIGGVPAGGVRFGASYNADALIDQGYQFDYYDGGGLDLCYLGLAECDEKGNINVSRFGPRIAGCGGFINITQNTPKVFFCGTFTAGGLKVKIEDGKVIIVQEGKQKKFLKAVEQITFNGDVALANKQQVTYITERCVFLLKEDGLHLSEIAPGIDLQTQILDVMDFAPIIDRDANGQIKLMDAALFAEGLMGLKEMKS
✓: ketothiol-product [1] | thiol-product [1] | ketothiol-product [3] | thiol-product [3] | ketothiol-product [4] | thiol-product [4] | ketothiol-product [5] | thiol-product [5] | ketothiol-product [6] | thiol-product [6] | ketothiol-product [7] | thiol-product [7] | ketothiol-product [8] | thiol-product [8]

B4: Bdigene 0244: 4-Hydroxybutyrate-CoA transferase from Clostridium aminobutyricum, Uniprot Q9RM86, SEQ ID NO: 19 (protein, listed as Clostridium aminobutyricum)
chain: MDWKKIYEDRTCTADEAVKSIKSGDRVLFAHCVAEPPVLVEAMVANAAAYKNVTVSHMVTLGKGEYSKPEYKENFTFEGWFTSPSTRGSIAEGHGQFVPVFFHEVPSLIRKDIFHVDVFMVMVSPPDHNGFCCVGVSSDYTMQAIKSAKIVLAEVNDQVPVVYGDTFVHVSEIDKFVETSHPLPEIGLPKIGEVEAAIGKHCASLIEDGSTLQLGIGAIPDAVLSQLKDKKHLGIHSEMISDGVVDLYEAGVIDCSQKSIDKGKMAITFLMGTKRLYDFAANNPKVELKPVDYINHPSVVAQCSKMVCINACLQVDFMGQIVSDSIGTKQFSGVGGQVDFVRGASMSIDGKGKAIIAMPSVAKKKDGSMISKIVPFIDHGAAVTTSRNDADYVVTEYGIAEMKGKSLQDRARALINIAHPDFKDELKAEFEKRFNAAF
✓: ketothiol-product [1] | thiol-product [1] | ketothiol-product ([9]; listed as Protein 244) | thiol-product ([9]; listed as Protein 244) | Solubility [2]
detected: ketothiol-product ([9]; listed as protein 244) | thiol-product ([9]; listed as protein 244)

B5: Bdigene 272: Acetate CoA-transferase YdiF from Peptostreptococcaceae bacterium oral taxon, Uniprot U2L5C9, SEQ ID NO: 5 (protein)
chain: MAKFVTLEEAVSVVKNGDTVATTGFVQVANPEALEWALGKRFEETKEPRDLTLFYCAGQGDGDCRAVNHFAKEGMLKRVVAGHFNMAPLLRQFISDNKCEAYNVPQGVLCNMVRDIAAKKPGVISHVGLNTFADPRIEGCKINLVTKEDIVELMMINGEEKLFYKTFPLTIAFIKGTYADERGNVTLENEGIPSEATSIAQSVHNCGGKVIVQVEKVVAAGTLDPKLVKVPGIYVDYIVQVDDPSMRQQCYGVDYEPELAGNVYIPLSDIPLKTPLNERKIIARRGAFEIRKGNVGNLGIGVPEVVSEVVSEEGITDWLTLTVEVGPVGGSPQGKNRFGTAINAEAILDQPYQFDFYDGGGLDIAYLGLAQADAKGNLNVSKFGDRVAGCGGFIDISQNSKAVVFCGSFTAGGLKVEVNDGKLNIVQEGKVKKFVNKVQQITFSGEYARKTGQRVFYVTERAVFQMKPEGLTLIEIAPGVDLEKDVLNQMEFKPLIAKDLKLMDERIFRPGPMGIKNDN
✓: ketothiol-product [1] | thiol-product [1] | Solubility [2]
